Results taken from article PMC11965522 (Communications Biology, 2025).
Numbering of substitutions follows the chain as printed. Each block holds one binder with its values, some of them ahead of it.

Key:
[1] = target: T1, P. furiosus (Pf) Mre11, wild type (P. furiosus, UniProt Q8U1N9 1-426); assay: SEC
FRET or BRET = target: the molecule itself; assay: FRET or BRET
[2] = target: T1, P. furiosus (Pf) Mre11, wild type; assay: FRET or BRET

binding result [2]: binds
B4: P. furiosus Rad50^NBD [change] [change], fluorophore-labeled (domain or fragment)
chain: MKLERVTVKNFRSHSDTVVEFKEGINLIIGQNGSGKSSLLDAILVGLYWPCRIKDIKKDEFTKVGARDTYIDLIFEKDGTKYRITRRFLKGYSSGEIHAMKRLVGNEWKHVTEPSSKAISAFMEKLIPYNIFLNAIYIRQGQIDAILESDEAREKVVREVLNLDKFETAYKELSELKKTINNRIKEYRDILARTEGGAGGAGGRERVKKEIKDLEKAKDFTEELIEKVKKYKALAREAALSKIGELASEIFAEFTEGKYSEVVVRAEENKVRLFVVWEGKERPLTFLSGGERIALGLAFRLAMSLYLAGEISLLILDEPTPYLDEERRRKLITIMERYLKKIPQVILVSHDEELKDAADHVIRISLENGSSKVEVVS
binding result (FRET or BRET): binds

binding result [2]: binds
B5: P. furiosus Rad50^NBD [change] [change]/[change], fluorophore-labeled (domain or fragment)
chain: B4 chain with E172K, R328E, R329E
binding result (FRET or BRET): binds

The remaining lines, values behind:

B1: P. furiosus Rad50 nucleotide-binding domain construct (aa 1-195 - GGAGGAGG linker - aa 709-882) (domain or fragment)
chain: B4 chain with C51L, E172K
binding result [1]: binds

B2: P. furiosus Rad50^NBD [change] [change]/[change], fluorophore-labeled (domain or fragment)
chain: B4 chain with S115E, S116E, E172K
binding result (FRET or BRET): binds
binding result [2]: binds

B3: P. furiosus Rad50^NBD [change] [change], fluorophore-labeled (domain or fragment)
chain: B4 chain with E172K, R363E
binding result (FRET or BRET): binds
binding result [2]: binds
